{"source": "patent US20160030477", "assay_in_all_cases": "cell_activity", "key": {"ZFN 49812 (synthetic)": {"tested_on": "ZFN 49812 (synthetic)", "settings": "pair 50773/49812, K562, AAV6 donor"}, "ZFN 44298 (synthetic)": {"tested_on": "ZFN 44298 (synthetic)", "settings": "pair 44298:44271, K562, day 3 (36.6% day 10; GFP 0.2%)"}, "ZFN 44271 (synthetic)": {"tested_on": "ZFN 44271 (synthetic)", "settings": "pair 44298:44271, K562, day 3 (36.6% day 10; GFP 0.2%)"}, "ZFN 50773 (synthetic)": {"tested_on": "ZFN 50773 (synthetic)", "settings": "pair 50773/49812, K562, AAV6 donor"}}, "data": [{"sequence": "CTTTTATGACCCATTTGGAAGAAATAAA (double strand) [RAG1 site 4 (55002/55005/49812)]", "values": [{"measurement": "activity (% targeted integration)", "setting": "ZFN 49812 (synthetic)", "value": 5}]}, {"sequence": "TTACAATCATGTGGGCAGAATTGAAAAG (double strand) [IL2RG 44298 site]", "values": [{"measurement": "activity", "setting": "ZFN 44298 (synthetic)", "value": 42.8, "unit": "% indels"}]}, {"sequence": "GCCAGTGGCAGGCACCAGATCTCTGTAC (double strand) [IL2RG 44271 site]", "values": [{"measurement": "activity", "setting": "ZFN 44271 (synthetic)", "value": 42.8, "unit": "% indels"}]}, {"sequence": "ATGATAAAGCTGCAAACCCAAAGAAACT (double strand) [RAG1 site 4 (50773)]", "values": [{"measurement": "activity (% targeted integration)", "setting": "ZFN 50773 (synthetic)", "value": 5}]}]}
